According to US20170247475A1 (Boehringer Ingelheim, published 2017):
Positions count from the first letter of the chain named. Like-named read-outs stand apart in the source and are kept apart here.

Experiments:
[1] = target: T1, hAng2; experiment: cell-based or functional assay
T1 chain: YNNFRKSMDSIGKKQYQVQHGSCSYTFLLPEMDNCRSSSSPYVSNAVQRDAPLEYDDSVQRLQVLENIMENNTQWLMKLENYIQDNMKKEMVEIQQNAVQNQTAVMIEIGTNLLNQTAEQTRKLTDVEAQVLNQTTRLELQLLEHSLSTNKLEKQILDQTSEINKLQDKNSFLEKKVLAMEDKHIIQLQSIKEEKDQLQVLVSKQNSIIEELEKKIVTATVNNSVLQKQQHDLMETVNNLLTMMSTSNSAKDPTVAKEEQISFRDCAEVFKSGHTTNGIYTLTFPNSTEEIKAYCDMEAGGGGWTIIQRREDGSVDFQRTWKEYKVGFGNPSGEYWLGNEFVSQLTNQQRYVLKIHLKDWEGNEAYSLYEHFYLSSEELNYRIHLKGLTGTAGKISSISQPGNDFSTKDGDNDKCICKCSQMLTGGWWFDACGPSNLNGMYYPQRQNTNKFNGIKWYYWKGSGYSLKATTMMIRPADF

[2] = target: T1, hAng2; experiment: competition ELISA, blocking of hAng2 binding to hTie2-Fc
[3] = target: T2, mAng2; experiment: competition ELISA, blocking of mAng2 binding to mTie2-Fc
T2 construct: may be the same protein as m22 (mouse Ang2-FLD); also called mouse Ang2
T2 chain: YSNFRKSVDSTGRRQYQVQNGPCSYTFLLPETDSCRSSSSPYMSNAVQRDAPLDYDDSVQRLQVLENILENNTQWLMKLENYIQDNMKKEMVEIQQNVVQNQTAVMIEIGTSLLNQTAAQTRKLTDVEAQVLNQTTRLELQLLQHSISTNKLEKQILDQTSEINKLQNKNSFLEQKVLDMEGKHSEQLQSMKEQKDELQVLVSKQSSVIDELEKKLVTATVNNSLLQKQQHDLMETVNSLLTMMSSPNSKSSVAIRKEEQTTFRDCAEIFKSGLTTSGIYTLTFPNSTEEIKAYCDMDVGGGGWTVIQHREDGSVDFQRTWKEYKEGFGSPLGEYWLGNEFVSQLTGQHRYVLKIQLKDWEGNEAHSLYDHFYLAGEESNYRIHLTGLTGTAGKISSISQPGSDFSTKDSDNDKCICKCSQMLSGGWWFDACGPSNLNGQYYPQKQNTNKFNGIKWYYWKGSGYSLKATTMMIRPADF

[4] = target: T3, cAng2 (cynomolgus monkey); experiment: competition ELISA, blocking of cAng2 binding to cTie2-Fc
T3 construct: may be the same protein as m21 (cyno Ang2-FLD); also called cyno Ang2

[5] = target: T4, hAng2; experiment: competition ELISA hAng2/hTie2-Fc; blocked: hTie2-Fc
T4 construct: also called human Ang2
T4 chain: T1 chain

[6] = target: T5, mAng2; experiment: competition ELISA mAng2/mTie2-Fc; blocked: mTie2-Fc
T5 construct: also called mouse Ang2
T5 chain: T2 chain

[7] = target: T5, mAng2; experiment: as above
[8] = target: T5, mAng2; experiment: as above
[9] = target: T6, cAng2 (cynomolgus monkey); experiment: competition ELISA cAng2/cTie2-Fc; blocked: cTie2-Fc
T6 construct: construct not given; also called cyno Ang2

[10] = target: T6, cAng2; experiment: as above; remark: listed apart in the source
[11] = target: T6, cAng2; experiment: as above; remark: listed apart in the source
[12] = target: T7, hAng2; experiment: competition ELISA, blocking of hAng2 binding to hTie2
T7 construct: also called human Ang2
T7 chain: T1 chain

[13] = target: T8, mAng2; experiment: competition ELISA, blocking of mAng2 binding to mTie2
T8 construct: also called mouse Ang2
T8 chain: T2 chain

[14] = target: T9, cAng2 (cynomolgus monkey); experiment: competition ELISA, blocking of cAng2 binding to cTie2
T9 construct: also called cyno Ang2

[15] = target: T10, human VEGFR2-Fc chimera (human, UniProt P35968 20-764); experiment: binding ELISA on coated human VEGF121
T10 construct: bought (R&D Systems); also called hVEGFR2-Fc; VEGFR2-huFc
T10 sequence (P35968 20-764, change not shown): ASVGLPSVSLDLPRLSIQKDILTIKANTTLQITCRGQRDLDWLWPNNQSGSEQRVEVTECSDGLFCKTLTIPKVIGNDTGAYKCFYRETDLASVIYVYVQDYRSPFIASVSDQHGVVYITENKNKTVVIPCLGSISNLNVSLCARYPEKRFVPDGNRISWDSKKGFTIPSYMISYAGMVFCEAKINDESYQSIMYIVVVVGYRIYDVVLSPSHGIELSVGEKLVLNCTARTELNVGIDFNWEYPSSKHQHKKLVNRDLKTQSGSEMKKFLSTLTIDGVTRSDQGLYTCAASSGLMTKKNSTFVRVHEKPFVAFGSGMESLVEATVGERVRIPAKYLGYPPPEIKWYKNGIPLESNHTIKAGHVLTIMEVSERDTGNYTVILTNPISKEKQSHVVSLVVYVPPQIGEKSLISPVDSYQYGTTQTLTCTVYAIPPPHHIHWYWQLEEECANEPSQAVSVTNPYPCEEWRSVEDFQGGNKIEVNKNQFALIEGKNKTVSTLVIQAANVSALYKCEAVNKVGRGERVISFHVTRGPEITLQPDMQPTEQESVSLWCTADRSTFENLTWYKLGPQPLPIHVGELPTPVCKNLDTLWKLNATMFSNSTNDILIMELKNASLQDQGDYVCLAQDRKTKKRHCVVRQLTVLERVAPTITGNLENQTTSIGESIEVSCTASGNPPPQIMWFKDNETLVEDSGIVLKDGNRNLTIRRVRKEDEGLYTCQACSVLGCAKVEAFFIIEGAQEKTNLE
Description: Binding to recombinant human VEGF121 is assessed via a solid phase binding ELISA. Briefly, recombinant human VEGF121 (R&D Systems, Minneapolis, Minn., USA) is coated overnight at 4° C. at 1 μg/mL in a 96-well MaxiSorp plate (Nunc, Wiesbaden, Germany). Wells are blocked with a casein solution (1% in PBS).

[16] = target: T7, hAng2; experiment: competition ELISA, blocking of hAng2 binding to hTie2
[17] = target: T8, mAng2; experiment: competition ELISA, blocking of mAng2 binding to mTie2
[18] = target: T9, cAng2; experiment: competition ELISA, blocking of cAng2 binding to cTie2; remark: listed apart in the source
[19] = target: T1, hAng2; experiment: cell-based or functional assay
[20] = target: T1, hAng2; experiment: competition ELISA, blocking of hAng2 binding to hTie2-Fc
[21] = target: T2, mAng2; experiment: competition ELISA, blocking of mAng2 binding to mTie2-Fc
[22] = target: T3, cAng2; experiment: competition ELISA, blocking of cAng2 binding to cTie2-Fc; remark: listed apart in the source
[23] = target: T1, hAng2; experiment: cell-based or functional assay
[24] = target: T1, hAng2; experiment: competition ELISA, blocking of hAng2 binding to hTie2-Fc
[25] = target: T2, mAng2; experiment: competition ELISA, blocking of mAng2 binding to mTie2-Fc
[26] = target: T3, cAng2; experiment: competition ELISA, blocking of cAng2 binding to cTie2-Fc; remark: listed apart in the source
[27] = target: T11, recombinant human VEGF165 (human, UniProt P15692-4 27-191); experiment: Biacore on VEGF165 (see Example 5.5)
T11 construct: also called hVEGF165; rhVEGF165
T11 sequence (P15692 other isoform, or with tags, fused parts or gaps limits assumed): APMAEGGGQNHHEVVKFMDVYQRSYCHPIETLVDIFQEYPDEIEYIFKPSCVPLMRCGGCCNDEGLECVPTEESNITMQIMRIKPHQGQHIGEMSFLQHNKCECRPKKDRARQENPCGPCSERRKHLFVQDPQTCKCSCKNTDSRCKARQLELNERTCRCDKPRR
Description: Samples are injected for 2 min and allowed to dissociate up to 20 min at a flow rate of 45 μI/min. In between sample injections, the chip surface is regenerated with 100 mM HCl. HBS-EP+(Hepes buffer pH7.4+EDTA) is used as running buffer. Binding curves are fitted using a Two State Reaction model by Biacore T100 Evaluation Software v2.0.1.
Affinity of VEGFBII032 is determined by Biacore (see Example 5.5) and the melting temperature is determined in the thermal shift assay as described above.

[28] = target: T11, recombinant human VEGF165; experiment: ProteOn, periplasmic extract 1/10 on hVEGF165 chip
From the text: One additional variant is constructed in which the potential oxidation site at position M30 (CDR1 region, see FIG. 19 indicated as bold italic residue) is removed by introduction of a M30I mutation.

[29] = target: T4, hAng2; experiment: competition ELISA hAng2/hTie2-Fc; blocked: hTie2-Fc
Description: The human assay is also performed after incubation of the VHH with 0.5 μM human serum albumin. Additionally, a hAng2 mediated HUVEC survival assay is performed (see Example 5.5; FIG. 29).

B1: 00921 (VHH)
VHH: EVQLVESGGGLVQPGGSLRLSCAASGFTFDDYALGWFRQAPGKEREGVSCIRCSGGSTYYADSVKGRFTISSDNSKNTVYLQMNSLRPEDTAVYYCAASIVPRSKLEPYEYDAWGQGTLVTVSS
IC50 (read off the curve), hAng2 mediated HUVEC survival [1]: ~30 nM | IC50 (read off the curve) [2]: ~20 nM | IC50 (read off the curve) [3]: ~30 nM | IC50 (read off the curve) [4]: ~50 nM

B2: 1D01 (VHH)
VHH: B1 VHH with P14A, P41A, G55D, S75A, R87K, L119Q
IC50 (read off the curve) [5]: ~8 nM | IC50 (read off the curve) [6]: ~10 nM | IC50 (read off the curve) [7]: ~10 nM | IC50 (read off the curve) [8]: ~10 nM | IC50 (read off the curve) [9]: ~10 nM | IC50 (read off the curve) [10]: ~10 nM | IC50 (read off the curve) [11]: ~10 nM

B3: ANGBII00001 (VHH)
bivalent VHH: EVQLVESGGGLVQAGGSLRLSCAASGFTFDDYALGWFRQAAGKEREGVSCIRCSDGSTYYADSVKGRFTISSDNAKNTVYLQMNSLKPEDTAVYYCAASIVPRSKLEPYEYDAWGQGTLVTVSSGGGGSGGGSEVQLVESGGGLVQAGGSLRLSCAASGFTFDDYALGWFRQAAGKEREGVSCIRCSDGSTYYADSVKGRFTISSDNAKNTVYLQMNSLKPEDTAVYYCAASIVPRSKLEPYEYDAWGQGTLVTVSS
notes: homodimeric anti-Ang2 VHH; also called 1D01-9gs-1D01
IC50 (read off the curve) [12]: ~10 pM | IC50 (read off the curve) [13]: ~20 pM | IC50 (read off the curve) [14]: ~30 pM

B4: recombinant human VEGF121 (ligand, UniProt P15692-9 27-147, looked up)
chain: APMAEGGGQNHHEVVKFMDVYQRSYCHPIETLVDIFQEYPDEIEYIFKPSCVPLMRCGGCCNDEGLECVPTEESNITMQIMRIKPHQGQHIGEMSFLQHNKCECRPKKDRARQEKCDKPRR
notes: also called rhVEGF121; hVEGF121
binding result [15]: binds

B5: ANGBII00006 (VHH)
bivalent VHH: EVQLVESGGGLVQPGGSLRLSCAASGITLDDYAIGWFRQAPGKEREGVSSIRDNGGSTYYADSVKGRFTISSDNSKNTVYLQMNSLRPEDTAVYYCAAVPAGRLRYGEQWYPIYEYDAWGQGTLVTVSSGGGGSGGGSEVQLLESGGGLVQPGGSLRLSCAASGITLDDYAIGWFRQAPGKEREGVSSIRDNGGSTYYADSVKGRFTISSDNSKNTVYLQMNSLRPEDTAVYYCAAVPAGRLRYGEQWYPIYEYDAWGQGTLVTVSS
notes: homodimeric anti-Ang2 VHH; also called 00908-9gs-00908
IC50 (read off the curve) [16]: ~20 pM | IC50 (read off the curve) [17]: ~30 pM | IC50 (read off the curve) [18]: ~30 pM

B6: 00938 (VHH)
VHH: EVQLVESGGGLVQPGGSLRLSCAVSGITLDDYAIGWFRQAPGKEREGVSAIRSSGGSTYYADSVKGRFTISSDNSKNTVYLQMNSLRPEDTAVYYCAAVPAGRLRYGEQWYPIYEYDAWGQGTLVTVSS
IC50 (read off the curve), hAng2 mediated HUVEC survival [19]: ~5 nM | IC50 (read off the curve) [20]: ~40 pM | IC50 (read off the curve) [21]: ~50 pM | IC50 (read off the curve) [22]: ~90 pM

B7: 00908 (VHH)
VHH: B6 VHH with V24A, A50S, S53D, S54N
notes: also called F009100908
IC50 (read off the curve) [16]: ~40 pM | IC50 (read off the curve) [17]: ~100 pM | IC50 (read off the curve) [18]: ~80 pM

B8: 00956 (VHH)
VHH: B6 VHH with V24A, I27F, Y106F, I113L
IC50 (read off the curve), hAng2 mediated HUVEC survival [23]: ~6 nM | IC50 (read off the curve) [24]: ~1 nM | IC50 (read off the curve) [25]: ~3 nM | IC50 (read off the curve) [26]: ~2 nM

B9: VEGFBII05B05 (VHH)
VHH: EVQLVESGGGLVQPGGSLRLSCVASGIRFMSMAWYRQAPGKHRELVARISSGGTTAYVDSVKGRFTISRDNSKNTVYLQMNSLKAEDTAVYYCNTFSSRPNPWGAGTQVTVSS
notes: also called VEGFBII5B05; VEGFBII5B05(wt)
Kd [27]: 32 nM | Binding level (RU) [28]: 242 RU | koff [28]: 0.0615 s⁻¹

B10: VEGFBII032 (VHH)
VHH: B9 VHH with V23A, M30I, H42Q, V58A, K84R, A105Q, Q108L
notes: also called VEGFBII0032
Kd [27]: 44 nM

B11: 7G08 (VHH)
VHH: EVQLVESGGGLVQPGGSLRLSCAASGFALDYYAIGWFRQVPGKEREGVSCISSSDGITYYVDSVKGRFTISRDNAKNTVYLQMNSLKPEDTAVYYCATDSGGYIDYDCMGLGYDYWGQGTQVTVSS
IC50 (read off the curve) [29]: ~100 pM
